Target: GRK2 (βARK1)
Assay: cell-based or functional assay

B1: hemagglutinin epitope-tagged Del301-303 human alpha-2B adrenergic receptor (receptor)
chain: YPYDVPDYAMDHQDPYSVQATAAIAAAITFLILFTIFGNALVILAVLTSRSLRAPQNLFLVSLAAADILVATLIIPFSLANELLGYWYFRRTWCEVYLALDVLFCTSSIVHLCAISLDRYWAVSRALEYNSKRTPRRIKCIILTVWLIAAVISLPPLIYKGDQGPQPRGRPQCKLNQEAWYILASSIGSFFAPCLIMILVYLRIYLIAKRSNRRGPRAKGGPGQGESKQPRPDHGGALASAKLPALASVASAREVNGHSKSTGEKEEGETPEDTGTRALPPSWAALPNSGQGQKEGVCGASPEDEAEEEEEEEEECEPQAVPVSPASACSPPLQQPQGSRVLATLRGQVLLGRGVGAIGGQWWRRRAQLTREKRFTFVLAVVIGVFVLCWFPFFFSYSLGAICPKHCKVPHGLFQFFFWIGYCNSSLNPVIYTIFNQDFRRAFRRILCRPWTQTAW
B1 was tested, and the “agonist-promoted whole cell phosphorylation of the receptor (10 µM norepinephrine)” value was 3.28 fold increase.

— US20060073508A1 (published 2006)
